Source: publication PMC12416549 (2024)
Where a chain is given by its changes, count along the chain named. Names may count otherwise.

T1: TNFR1 (Homo sapiens, UniProt P19438)
T1 chain: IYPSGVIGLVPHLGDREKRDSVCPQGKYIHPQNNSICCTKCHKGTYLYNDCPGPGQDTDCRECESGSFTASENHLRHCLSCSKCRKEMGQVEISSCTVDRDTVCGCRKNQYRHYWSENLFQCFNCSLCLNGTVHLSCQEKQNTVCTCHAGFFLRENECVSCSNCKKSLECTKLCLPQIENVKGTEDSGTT

B1: A88T (designed binder)
chain: MTLQELLREEALRRAEAEAFRYALELLAEKFPEQKEYLLDLAEEIESQIRSLSGVDVEDVRKFLDKEWAWVKELLAEHPAELAEVEATRAARLAELRAEVEAKVAA
B2: V60A (designed binder)
chain: B1 chain with V60A, T88A
B3: Y22V (designed binder)
chain: B1 chain with Y22V, T88A
B4: D56G (designed binder)
chain: B1 chain with D56G, T88A
B5: K62N (designed binder)
chain: B1 chain with K62N, T88A
B6: L6H (designed binder)
chain: B1 chain with L6H, T88A
B7: V55H (designed binder)
chain: B1 chain with V55H, T88A
B8: V60Q (designed binder)
chain: B1 chain with V60Q, T88A
B9: V55T (designed binder)
chain: B1 chain with V55T, T88A
B10: R92N (designed binder)
chain: B1 chain with T88A, R92N
B11: A23W (designed binder)
chain: B1 chain with A23W, T88A
B12: E5N (designed binder)
chain: B1 chain with E5N, T88A
B13: R89V (designed binder)
chain: B1 chain with T88A, R89V
B14: S51V (designed binder)
chain: B1 chain with S51V, T88A
B15: E99R (designed binder)
chain: B1 chain with T88A, E99R
B16: E10H (designed binder)
chain: B1 chain with E10H, T88A
B17: L7C (designed binder)
chain: B1 chain with L7C, T88A
B18: E73D (designed binder)
chain: B1 chain with E73D, T88A
B19: P32E (designed binder)
chain: B1 chain with P32E, T88A
B20: R50I (designed binder)
chain: B1 chain with R50I, T88A
B21: A80T (designed binder)
chain: B1 chain with A80T, T88A
B22: A83F (designed binder)
chain: B1 chain with A83F, T88A
B23: R89F (designed binder)
chain: B1 chain with T88A, R89F
B24: A23C (designed binder)
chain: B1 chain with A23C, T88A
B25: A17I (designed binder)
chain: B1 chain with A17I, T88A
B26: R50P (designed binder)
chain: B1 chain with R50P, T88A
B27: Y37N (designed binder)
chain: B1 chain with Y37N, T88A
B28: L75A (designed binder)
chain: B1 chain with L75A, T88A
B29: L52H (designed binder)
chain: B1 chain with L52H, T88A
B30: E101R (designed binder)
chain: B1 chain with T88A, E101R
B31: V100K (designed binder)
chain: B1 chain with T88A, V100K
B32: A80K (designed binder)
chain: B1 chain with A80K, T88A
B33: K62D (designed binder)
chain: B1 chain with K62D, T88A
B34: L6E (designed binder)
chain: B1 chain with L6E, T88A
B35: A106I (designed binder)
chain: B1 chain with T88A, A106I
B36: L3R (designed binder)
chain: B1 chain with L3R, T88A
B37: E10G (designed binder)
chain: B1 chain with E10G, T88A
B38: D40M (designed binder)
chain: B1 chain with D40M, T88A
B39: Y22D (designed binder)
chain: B1 chain with Y22D, T88A
B40: F20T (designed binder)
chain: B1 chain with F20T, T88A
B41: K30D (designed binder)
chain: B1 chain with K30D, T88A
B42: L75M (designed binder)
chain: B1 chain with L75M, T88A
B43: L41D (designed binder)
chain: B1 chain with L41D, T88A
B44: A90G (designed binder)
chain: B1 chain with T88A, A90G
B45: K35F (designed binder)
chain: B1 chain with K35F, T88A
B46: E101N (designed binder)
chain: B1 chain with T88A, E101N
B47: L41K (designed binder)
chain: B1 chain with L41K, T88A
B48: A98E (designed binder)
chain: B1 chain with T88A, A98E
B49: A90I (designed binder)
chain: B1 chain with T88A, A90I
B50: E36F (designed binder)
chain: B1 chain with E36F, T88A
B51: Q34I (designed binder)
chain: B1 chain with Q34I, T88A
B52: L38R (designed binder)
chain: B1 chain with L38R, T88A
B53: V85W (designed binder)
chain: B1 chain with V85W, T88A
B54: E73Q (designed binder)
chain: B1 chain with E73Q, T88A
B55: I45L (designed binder)
chain: B1 chain with I45L, T88A

Molecular target: T1, TNFR1
Assay: yeast display SC50

Row | apparent Kd (screen) | Binder
1 | 1.4 nM | B1
2 | 0.653 nM | B2
3 | 0.79 nM | B3
4 | 0.956 nM | B4
5 | 0.49 nM | B5
6 | 8.56 nM | B6
7 | 1.16 nM | B7
8 | 0.718 nM | B8
9 | 0.718 nM | B9
10 | 0.718 nM | B10
11 | 0.869 nM | B11
12 | 0.446 nM | B12
13 | 0.79 nM | B13
14 | 2.05 nM | B14
15 | 0.446 nM | B15
16 | 3.3 nM | B16
17 | 8.56 nM | B17
18 | 0.539 nM | B18
19 | 0.49 nM | B19
20 | 0.956 nM | B20
21 | 0.718 nM | B21
22 | 0.593 nM | B22
23 | 1.05 nM | B23
24 | 0.446 nM | B24
25 | 0.229 nM | B25
26 | 2.25 nM | B26
27 | 0.869 nM | B27
28 | 0.653 nM | B28

Row | apparent Kd (screen) | Binder
29 | 6.43 nM | B29
30 | 0.49 nM | B30
31 | 0.49 nM | B31
32 | 0.718 nM | B32
33 | 0.593 nM | B33
34 | 8.56 nM | B34
35 | 0.593 nM | B35
36 | 2.48 nM | B36
37 | 1.4 nM | B37
38 | 0.593 nM | B38
39 | 0.446 nM | B39
40 | 1.16 nM | B40
41 | 1.27 nM | B41
42 | 1.54 nM | B42
43 | 1.27 nM | B43
44 | 0.653 nM | B44
45 | 0.539 nM | B45
46 | 0.718 nM | B46
47 | 11.4 nM | B47
48 | 0.869 nM | B48
49 | 0.49 nM | B49
50 | 0.539 nM | B50
51 | 0.593 nM | B51
52 | 4.39 nM | B52
53 | 0.869 nM | B53
54 | 0.446 nM | B54
55 | 0.539 nM | B55
